{"source": "paper PMC3253924", "about": "(DNA Repair, 2011)", "proteins": {"B1": {"name": "mouse TREX1 catalytic core (residues 1-242), wild type (enzyme, UniProt Q91XB0 1-242, looked up)", "chain": "MGSQTLPHGHMQTLIFLDLEATGLPSSRPEVTELCLLAVHRRALENTSISQGHPPPVPRPPRVVDKLSLCIAPGKACSPGASEITGLSKAELEVQGRQRFDDNLAILLRAFLQRQPQPCCLVAHNGDRYDFPLLQTELARLSTPSPLDGTFCVDSIAALKALEQASSPSGNGSRKSYSLGSIYTRLYWQAPTDSHTAEGDVLTLLSICQWKPQALLQWVDEHARPFSTVKPMYGTPATTGTT"}, "B2": {"name": "mouse TREX1 catalytic core (residues 1-242), D18N mutant (enzyme, UniProt Q91XB0 1-242, looked up)", "chain": "B1 chain with D18N"}, "B3": {"name": "mouse TREX1 catalytic core (residues 1-242), D200N mutant (enzyme, UniProt Q91XB0 1-242, looked up)", "chain": "B1 chain with D200N"}, "B4": {"name": "mouse TREX1 catalytic core (residues 1-242), V201D mutant (enzyme, UniProt Q91XB0 1-242, looked up)", "chain": "B1 chain with V201D"}, "B5": {"name": "mouse TREX1 catalytic core (residues 1-242), D200H mutant (enzyme, UniProt Q91XB0 1-242, looked up)", "chain": "B1 chain with D200H"}}, "key": {"crystal structure [1]": {"biological_target": "the molecule itself", "assay": "crystal structure"}, "crystal structure [2]": {"biological_target": "the molecule itself", "assay": "crystal structure", "remark": "listed apart in the source"}}, "note": "Positions count from the first letter of the chain named. Names may count otherwise. Read-outs that look alike come from different tables or passages of the source.", "data": [{"protein": "B1", "values": [{"measurement": "binding result", "setting": "crystal structure [1]", "result": "binds"}]}, {"protein": "B2", "values": [{"measurement": "binding result", "setting": "crystal structure [2]", "result": "binds"}]}, {"protein": "B3", "values": [{"measurement": "binding result", "setting": "crystal structure [2]", "result": "binds"}]}, {"protein": "B4", "values": [{"measurement": "binding result", "setting": "crystal structure [2]", "result": "binds"}]}, {"protein": "B5", "values": [{"measurement": "binding result", "setting": "crystal structure [2]", "result": "binds"}]}]}
